Our source for the Kd values is publication PMC6763431, “Methionine in a protein hydrophobic core drives tight interactions required for assembly of spider silk” (Nature Communications, 2019).

B1: wild-type N-terminal domain of major ampullate spidroin 1 (MaSp1) from Euprosthenops australis [Euprosthenops australis] / itself (parent)
chain: SHTTPWTNPGLAENFMNSFMQGLSSMPGFTASQLDDMSTIAQSMVQSIQSLAAQGRTSPNKLQALNMAFASSMAEIAASEEGGGSLSTKTSSIASAMSNAFLQTTGVVNQPFINEITQLVSMFAQAGMNDVSA

Usually Kd stands for the free concentration of one partner at which half of the binding sites on the other are occupied at equilibrium, for simple one-to-one binding.

In the assay the parent is B1. Put plainly: high-resolution SEC. As to conditions: with itself; read off a plot.
Consider SHTTPWTNPGLAENFLNSFLQGLSSMPGFTASQLDDMSTIAQSMVQSIQSLAAQGRTSPNKLQALNMAFASSMAEIAASEEGGGSLSTKTSSIASAMSNAFLQTTGVVNQPFINEITQLVSMFAQAGMNDVSA [chain 1 M16L M20L], for which the dissociation constant (Kd) amounted to 160 nM.
Under SHTTPWTNPGLAENFLNSFLQGLSSMPGFTASQLDDLSTIAQSLVQSIQSLAAQGRTSPNKLQALNMAFASSMAEIAASEEGGGSLSTKTSSIASAMSNAFLQTTGVVNQPFINEITQLVSMFAQAGMNDVSA [chain 1 M16L M20L M37L M44L] stands 660 nM; under SHTTPWTNPGLAENFLNSFLQGLSSMPGFTASQLDDLSTIAQSMVQSIQSLAAQGRTSPNKLQALNMAFASSMAEIAASEEGGGSLSTKTSSIASAMSNAFLQTTGVVNQPFINEITQLVSMFAQAGMNDVSA [chain 1 M16L M20L M37L], 750 nM.
Under SHTTPWTNPGLAENFLNSFLQGLSSMPGFTASQLDDLSTIAQSLVQSIQSLAAQGRTSPNKLQALNMAFASSLAEIAASEEGGGSLSTKTSSIASAMSNAFLQTTGVVNQPFINEITQLVSMFAQAGMNDVSA [chain 1 M16L M20L M37L M44L M73L] stands 1000 nM.
